Experimental findings from a protein production outcome set (Wang et al. 2014) are described below.

This data set can be described thus: label from the status in PepcDB records.
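Further: failed if final PepcDB status was selected cloned or expressed and not failed if soluble or beyond.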

In the case of “MTGTLLSFGHGYTARVLSRALAPQGWRIIGTSRNPDQMEAIRASGAEPLLWPGEEPSLDGVTHLLISTAPDSGGDPVLAALGDQIAARAAQFRWVGYLSTTAVYGDHDGAWVDETTPLTPTAARGRWRVMAEQQWQAVPNLPLHVFRLAGIYGPGRGPFSKLGKGGIRRIIKPGQVFSRIHVEDIAQVLAASMARPDPGAVYNVCDDEPVPPQDVIAYAAELQGLPLPPAVDFDKADLTPMARSFYSENKRVRNDRIKEELGVRLKYPNYRVGLEALQADAET”, the protein production result is “not failed”.

With “MTHIIIDGDACPVVDSIIDLTTETGIFVTIIRSFSHFSNQLYPPHVSTLYVDDGPDAVDYKIVQLSTKDDIVVTQDYGLASLLVDKVLIVMHHNGKIYNSKNIQQLLDKRYINAQIRKQGGRHKGPPPFTKQDQKVFEQSLLKVIHRIKELDLEHHHHHH”, the protein production result was “not failed”.

On to “MTHLQGVRHAHRQVTAGVRGLTRHLCMVLVGCSLGLVAAGCTREPSSPTARASHSDAAPATPTASPAPASTPPPAADPSVLRVCADPGNMPLSNKAGEGFQNKIAQVVAEAMGRRLEYEWRTYYQRGLARSTINAGRCDVLMDLNSDFEMGLTTRPLYRSPYVLVTRKGLDLVPTSLDDPALKKLRLGVFQSSPARQALYEHGVSGEVKYLFYDSATAPEEHPGKLVERVAAGELDAAESWGPVAGYYAARNNLGVVPLNTIDDAVLEYSMAWAVARKNAALRDALNTALQQSAAKIDEILRSYHVPLVRCADCIVAGDLASHGPYVTPASAPKSTNAATSSQELAQLQLRIADGADPNQELAHALDAGDALRAAWLLRHGADANQPNLLGEPPLHQAIRNQEPDLVGLLIDAGARLDARDGNGWTALMKAAWGNDADSVQRLLARRAPLDTVSSDGWNALELAVSYADVGVVEALLKAGAKARGANRTGFTPVMFAVPREDPAILDALLKHGADVRGANQAGVTALMLAAASGREATAKRLLAAGADPAARNRDGKTAATLAQERGDAALAALLAPGKRSTTQ”, for which the protein production entry was “failed”.

In the case of “MTHNHHHQAVDNLLNVFSRASHDLTVVHSKLDKEFQQMYPANANPMKLIQRIKKLQEDVTLLKHQCLDLLSAKQDLIDKAQTTLVGNCNLIQKMNASLGESTNGDTDDALADFNQIIDEWTMQVRSRTVGETEDADKEDINKMLFSAICHTN”, the protein production result is “failed”.

For the sequence “MTHQVIDCLGVVLAGGLSSRMGQDKAQLKRLQKTTDPSAKSAHSMLDFSKQLLADAGIKNIVISGDNHQIPDRVPHAGPVGGIYSVLSHYLANSPEHLQPKALLILPVDLPLMTASALTELRLKGELSHKATFFSDRQKNRHHIPLYLPNNAFLNMFLMQAFHREELLANSKGNNKKNGPSVRAMLEQVPHQAIASLNNQVLFNTNTPEQWQQAQQKF”, the protein production result is recorded as “failed”.

For the sequence “MTHRIAPRCFSTIMLLCLLYTSPLDVIAQGQGGQGDIPVVNPTAPGGSTTTPTITQPSPPSLTFPGPTTPTGGYPPLDGTTPTGGYPPLYGTTPPGGGDVGGGGGGYGGGTPGGGGGGGGDTGAGAGGGGYGGGGDTGAGGGVGSGQWCIAKANASPTSLQVALDYACGYGGADCGQIQQGAACYEPNTIRDHASFAFNSYYQKHPGSDSCNFGGAAQLTSTDPSKTS”, the protein production result is “failed”.

As to “MTHTIIHPSSSKSSFESPAMAYRINCQQGQTHLLWVTLRLTAPQTDVLDLHLPVWTPGSYLVREYARHLQDFTAATADGTPLEWWKCTKNQWQVACTPGLELKVRYAIYAHELSVRTSHFDRSHAYFNPAAVCLYVPQYRDQPLTITIEAPPDWRVTTPLEGWGEDGRTFWAPNYDLLVDSPFEVGTHGIYTFEVDGKPHELAVWGKGNFDPKRAIADIQRIIETEASFFGGLPYDRYVFILHLTHKGYGGLEHLNSCSLIFHRFGFQQPEQYCRFLCLVAHEFFHLWNIKRIRPQAFEVFDYDSENYTTSLWFVEGVTSYFDQLIPLWAGLFDAPTYLKLLSDSLNRYFHTPGRFVQSLSAASFDAWIKLYRPDENSINSQMSYYLKGELVALLLDLRIRLNFNHQRSLLDVLRRLWQRYCETGEGYTPDELWQTIETVADENLSTWREQFIEGTVELPLQEWLTKVGLELVPQDALPYTGLQFQQEQGSLQIKAVLRDSPAEQAGLGAGDEIIALNGWRVKAQDWSERLREYTAGETIHLTWFHDQQLQSGDLILGEPQPHYRLQCRADATPSQRAHLEAWLGATATQL”, the protein production entry was “failed”.

Regarding “MTIAILPARLANQIAAGEVVERPASVIKELIENSLDAGATSIHIDVDKGGIKKIKITDNGHGIVKEELTLALSRHATSKIKSLNDLEAIGSLGFRGEALASISSVARLTLTSKPQSQATAWQAVAEGRDMSVNIKPAAHPDGTSIEVLDLFFNTPARRKFLRTEKTEFNHIDEVVRRIALAHFEVSFSLTHNGNTVRQYRMASTHAQCIKRVAMVCGPKFIEHAVEVDCPHDNMTLSGWLAKPSFSRSQNDLCYSYVNGRMMRDKLINHAIRQAYADLLPPDTYPAFVLFLQLDHREVDVNVHPSKHEVRFHQSRYVHDFIYSVCHKALTSALAGEELFTTADSDLALVPEQSYSSLGANDRQGSHSSNTPTLNYPSADYIRPLQHVNDASNSQSTSSYSGYGQQHKTNAISKIAASNYQALMTPDKGSSAQVQNTSGSDQASAQKHETTTLQNSTDQSAFLSVHQPGYALYKTENGVRVLSLFKLAKSTYGKLVEQSWQNKTEQSDCPVECLVSQPLLLPVILSLSEQQLSFVLAEQEILSNAGIVFIQQHKNKIQIRQFPALLREQDVSNALIIIIEELIEKRSFTEGEALCETNLHQSIGLAMVLAEYDETQADILLRLTKKLFHEQLSQQLLLNSIPLDLTSHIKTLF”, the protein production result is “failed”.

Regarding “MTIATIDIGGTGIKFASLTPDGKILDKTSISTPENLEDLLAWLDQRLSEQDYSGIAMSVPGAVNQETGVIDGFSAVPYIHGFSWYEALSSYQLPVHLENDANCVGLSELLAHPELENAACVVIGTGIGGAMIINGRLHRGRHGLGGEFGYMTTLAPAEKLNNWSQLASTGNMVRYVIEKSGHTDWDGRKIYQEAAAGNILCQEAIERMNRNLAQGLLNIQYLIDPGVISLGGSISQNPDFIQGVKKAVEDFVDAYEEYTVAPVIQACTYHADANLYGALVNWLQEEKQW”, the protein production entry is on record as “not failed”.

Turning to “MTIAVLGATGMVGSRVITEAGARGHRVLALSRKPASEDPNVTLIAADANDPSAVREALAGVASNRAADAVVLTVRTHPVDQEFLIGATRTVLDIAAQLGIRVLVVGGAGALRSPDDHDLLVADNPTYVPAEWKTTAAAGIAQLRACQAHADADWVYLSPPALLEPGERTGRYRRGTDTLLTSADGRSWISAEDLAVAVVDELETPGRERLITVAHRDEPPSA”, the protein production entry is “failed”.

In the case of “MTIGEIIDCLNRRESIAIIAKRLEISPYTLSKKLRLIGYEYDGEQKKRIFVGDGEEPRHLQLQEATALQYAKTDYQLLIYEQLQSIYELLRKREEVIVPIMNISTEKKKRTFSINKEILAKLDVISESKGIQKSKLVEEALQQFLQQYDFNNTSHFDN”, the protein production entry is “failed”.

With “MTIGYRDAAGDPLFPWLMEIKNSMEDLYAGKNSGYDLDKLLFDCISTYKKDSRYRNDLRFLKIWEDFERVYREIEETEICKGHSLLYEWYAIFLEVKGLWRRANSVYQTGLSRKAEPFDRLKEAHSLFLQRISKRTKASSLEKVGDDAQATDLETGFVNPWETSTVNGLIHKIKPQLVKYDGYHVSNKVFPGKANLSSLQNYSRNKIIEIGILFSYQSSLSPLQDKESFFLL”, the protein production result is “failed”.

Regarding “MTIIDDGKLKKAITAASLGNAMEWFDFGVYGFVAYALGKVFFPDANPSVQMIAALGTFSVPFLIRPLGGLFFGMLGDKYGRQKILAITIVIMSISTFCIGLIPSYATIGIWAPILLLLCKMAQGFSVGGEYTGASIFVAEYSPDRKRGFMGSWLDFGSIAGFVMGAGVVVLISSVVGEQNFLDWGWRIPFFLALPLGIIGLYLRHALEETPAFQQHVDTMEQGDREGLQDGPKVSFKEIATKHWRSLLTCIGLVISTNVTYYMLLTYMPSYLSHNLHYSEDHGVLIIIAIMVGMLFVQPVIGMLSDRFGRRPFILIGSVALFALSIPAFIMINSNVTGLIFAGLLLLAVVLNCFIGVMASSLPAMFPTHIRFSALASAFNISVLIAGLTPTLAAWLVETTQNLMMPAYYLMVIAVVGMATGLSMKETANRPLKGATPAASDIQEAKEILGEHYDNIEQKIEDIDQEIADLQAKRSRLVQQHPRIND”, the protein production result is “failed”.

On to “MTINWIQAAILGLFACLCSNSCMAGQAVGNYTIGRPLVGGLVCGIILGDLKLGIACGVAMQLVYIALVTPGGTVSADVRAISYIGIPLAMVAISTKGLDPLGGSAADLAKSVGTLVGTIGTVLFYSVAALNLVWQSFGWKDIKKGKLDHLYAINFGWPWISHLLFSFLPTVILTYFGATAVTAMRDALPMDGLAMKTLFTVGGMLPCVGIAILLRQIVNKNIDFVPFFVGFTLAASLKLNLVSITIIALLFAVIFYKIALIKNNTKLVDSTGSLTNDDEEEDI”, for which the protein production result is reported as “failed”.

Take “MTIPTISELKKDRIIPHVFPNDKIDLNVDLFISFKAGKEVNHGNVLDIAGTGSVPRNIKFSEEPPDGYCFVLFMVDPDYPSRLRPDGKEYIHWVVSGIKTKELIKGTQKNCVTILPYVGPSIKKGTGLHRISFIISLIKEEDKDNITGLPHYKGEKYITRVKFNNYESVHNIAQINNMKIVGYNWCQIEG”: the protein production result is “failed”.

On to “MTIQLTVPTIACEACAEAVTKAVQNEDAQATVQVDLTSKKVTITSALGEEQLRTAIASAGHEVE”, for which the protein production result is “not failed”.

As for “MTISNGDVKSETCNNGSSEKKPFRIFVGYDPREDLAYQVCHHSITKRSSIPVEITPIIQSDLRKKGLYWRERGQLESTEFSFSRFLTPHLSDYQGWAMFVDCDFLYLADIKELTDLIDDKYAIMCVQHDYTPKETTKMDGAVQTVYPRKNWSSMVLYNCGHPKNKTLSPEIVNTQTGAFLHRFQWLEDEEIGSIPFVWNFLEGHNRVVEKDPTTQPKAVHYTRGGPWFDAWKDCEFADLWLNEMEEYNKENKKEADNAK”, the protein production result is reported as “failed”.

Regarding “MTISRTQQIQQLEQEWTSPRWKNITRPYSAEDVIKLRGSVNPECTFAQNGAKKLWELLHGGSRKGYINCLGALTGGQALQQAKAGVEAIYMSGWQVAADANTASSMYPDQSLYPVDSVPAVVKRINNSFRRADQIQWSNNIEPGSKGYTDYFLPIVADAEAGFGGVLNAFELMKAMIEAGAAGVHFEDQLAAVKKCGHMGGKVLVPTQEAIQKLVAARLAADVLGVPTLLIARTDADAADLLTSDCDPYDREFITGDRTAEGFFRTRAGIEQAISRGLAYAPYADLVWCETSTPDLALAKRFADAVHAQFPGKLLAYNCSPSFNWKKNLTDQQIASFQDELSAMGYKYQFITLAGIHSMWFNMFDLAHAYAQGEGMKHYVEKVQQPEFASVDRGYTFASHQQEVGTGYFDKVTNIIQGGASSVTALTGSTEEQQF”, the protein production result is recorded as “not failed”.

Regarding “MTISYPAKEFLQTIFKTPYLKNLYLSPTMSIYDTLIGSPATTLKRYLLKSDVAVMYTSPSTYVENEDSSFRFNQNCSPMPPWVLGTKSKTIINTLPPKKSHKRTNTDIIGIHSMTSQNSSGSSYFQLLDLLADLGELIYDDEAMKGFYYEFMNLDNKNAFNNDENLNNLMITFTNLGGASNANESGLKIGATTSGVKTKVDEDIEPLCRHYKCATMDSSFIHWITHWNLLDQVFSSNFVGEGEYYTDPNEVKRILENRDLDTRSKQGKSLYIVDLEGSVRIHVMVNTSLYGMIVLLEVRHITLAKKKNDVDDEREQENEDSS”, the protein production result is recorded as “failed”.

Consider “MTITNSKAEAWELIGNQFWTIGRVAARPSDRENDIFLENIVPGSTVAVIGASTRFLIEKALERGASVTVFDFSQRMCDDLAEALADRCVTIDLLDITAEIPKELAGHFDFVLNDRLINRFTTEEARRACLGMLSLVGSGTVRASVKLGFYDIDLKLIEYGEQSGTLAKFFDPSDKTFHFREAGDVLDRALVPHGLIDKPTLLEWYRRRGKETRFDDEDVRAL”, for which the protein production result was “failed”.
